Source: the supplement of paper PMC9170038

Tested on: MS2 coat protein
Experiment: apparent KD of MS2 coat protein; designed switch direction (-1 OFF switch, 1 ON switch): -1; higher = weaker reporter binding
How it was run: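 An oligonucleotide input, 200 uM small-molecule ligand, or no input was present during titration of SNAP-549-labelled MS2 coat protein, which was doubled from 0.7 or 1.5 nM to 3 µM. Designed RNA switches had been transcribed on Illumina chips by stalled E. coli RNA polymerase. Apparent KD per design is the median over clusters of curves fitted to normalised cluster fluorescence.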

[1] = input ligand: microRNA oligo, concentration not stated
[2] = Eterna round: R95, input ligand: microRNA oligo, concentration not stated
[3] = Eterna round: R95, input ligand: FMN 200 uM
[4] = Eterna round: R95, input ligand: none

Sequence	apparent KD of MS2 coat protein (input ligand: FMN 200 uM) [nM]	apparent KD of MS2 coat protein [1] [nM]	apparent KD of MS2 coat protein (input ligand: none) [nM]	apparent KD of MS2 coat protein [2] [nM]	apparent KD of MS2 coat protein [3] [nM]	apparent KD of MS2 coat protein [4] [nM]
CCGUUCCGUGUAGGAUAUUGGCCUUCCUCGGGCCGAGAAGGACAUGAGGAUCACCCAUGUAUGCUAUUAUCGCGCGUGGCGCCC [Design 98] (Eterna round: R96, puzzle: Exclusion NG 1)	129	32.4	39.8			
UGAUCAGACCGAGGAUAUAUAUGUAGGACGCACGUGAGUGCGUCCAGUACAUGAGGAUCACCCAUGUAGAAGGCGGUCUGAUCU [JL ENG2 1.96] (Eterna round: R96, puzzle: Exclusion NG 2)	20.3	9.99	13.6			
UUUUGCACGCUGCGGUCCUACAUGAGGAUCACCCAUGUGGUCUGGUGGCGUGGGUCGCCGGACUUGGCUCGUCUUGA [salish99_S_TOV1_R5_037] (Eterna round: R97, puzzle: Sensor, turn-off variant 1)	17.5		18.2			
UUGUUGUAUGUAGGAUAUGCGUAUUAUUAUUAUGCAGAAGGACAUGAGGAUCACCCAUGUGUAUUAUUAUUAUAUAUUAUAUAU [Title] (Eterna round: R96, puzzle: Exclusion NG 1)	44.3	20.8	19.7			
UUACAGCAAGGAUAUACAUGAGGAUCACCCAUGUAUGCAUGUUCGAGAGAGGCCUACGGUAGAAGGUGCAUGUU [EX3 C.11] (Eterna round: R97, puzzle: Exclusion 3)	25.2		39.8			
CUUGUGUGAGGAUAUCAGUAGUAGUACGAUAGUAUUACUGCUGAGAAGGCACAUGAGGAUCACCCAUGUUCUUC [Exclusion 4 - Mod Omei Ex4 344 mod v.4] (puzzle: Exclusion 4)				23.6		
AUGGAGGUAGUCAGGAUAUCGGGCGCUCGGGCGUACGAGAAGGGACAUGAGGAUCACCCAUGUCGCUCAUUCCA [BmEX4 C.2] (Eterna round: R97, puzzle: Brourd's mod of Exclusion 4)	24.6		23.4			
UUAUUGUGUGUAGGAUAUGCGUGUUAUUAUUAUGCAGAAGGACAUGAGGAUCACCCAUGUGUAUUAUUAUUAUAUAUUAUAUAU [Title] (Eterna round: R96, puzzle: Exclusion NG 1)	45.3	27.2	27.7			
UCAUAGUGAGGAUAUCGGUCCCUGACAAAUAGUUGGGUUAUUGAGAAGGCACAUGAGGAUCACCCAUGUGUCCG [EX4 C.5] (Eterna round: R97, puzzle: Exclusion 4)	19.7		13.5			
ACAUGCCGCGCAGGAUAUGGGACACAUGAGGAUCACCCAUGUGGUUUCAUGUCUAACCAAGCGUCCCAGAAGGGCGUGAACAUG [Ex NG2 #29] (Eterna round: R96, puzzle: Exclusion NG 2)	30.9	16.1	25.2			
CCAUCGUGUGUGAGGAUAUGCUGGUCCUUGGAUCAGCAGAAGGCACAUGAGGAUCACCCAUGUGAAAACGGUGG [Mat - Exclusion 4 - JL Mod - D86] (puzzle: Brourd's mod of Exclusion 4)				22.3	67	23.9
UAAUAAAGUGUGAGGAUAUGCUGGUCGAUAGAUCAGCAGAAGGCACAUGAGGAUCACCCAUGUAAUAUAUAAAU [Mat - Exclusion 4 - JL Mod - D58] (puzzle: Brourd's mod of Exclusion 4)				40.9	258	45
UCCCUGUCAGGAUAUACAUGAGGAUCACCCAUGUCUCUCCGACACGGGAAAAGGAACUGUAGAAGGGACAGGAU [Xezaeseris] (puzzle: Exclusion 3)				12.3	19.6	15.2
